Laboratory results: patent publication US6495137
Where “and” joins values, the source holds several entries; their conditions need not be identical. Equal entries are not always repeated.

Tests used:
[1] = molecular target: bovine submaxillary mucin (BSM), TAG-72-positive (bovine); assay: radiolabeled antibody bound to BSM beads
[2] = molecular target: bovine submaxillary mucin (BSM), TAG-72-positive (bovine); assay: relative affinity constant, competition RIA on BSM, Scatchard analysis
[3] = molecular target: bovine submaxillary mucin (BSM), TAG-72-positive (bovine); assay: competition RIA, 125I-labeled nCC49 as competitor, BSM as target antigen; set-up: unit not given here

B1: HuCC49* humanized CC49 monoclonal antibody (antibody, V domains shown)
VH: QVQLVQSGAEVVKPGASVKISCKASGYTFTDHAIHWVKQNPGQRLEWIGYFSPGNDDFKYNERFKGKATLTADTSASTAYVELSSLRSEDTAVYFCTRSLNMAYWGQGTLVTVSS
VL: DIVMSQSPDSLAVSLGERVTLNCKSSQSLLYSGNQKNYLAWYQQKPGQSPKLLIYWASARESGVPDRFSGSGSGTDFTLTISSVQAEDVAVYYCQQYYSYPLTFGAGTKLELK
Q: How did the percent bound [1] turn out when B1 was run?
A: > 85% and 85%

Q: And the Ka [2]?
A: 6e+07 M⁻¹

Q: And the amount required for 50% competition [3]?
A: 45
